For series [1], the system named is CC(=O)NCCCC[C@H](NC(=O)OC(C)(C)C)C(=O)Nc1ccc2c(C)cc(=O)oc2c1. Kind of series: purified protein. The following applies: pH 8, 30 °C, 20 mM Tris-HCl, 50 mM NaCl.
Series [2] has as its system Cc1cc(=O)oc2cc(NC(=O)[C@H](CCCCNC(=O)C(F)(F)F)NC(=O)OC(C)(C)C)ccc12. Kind of series: purified protein. As to conditions: pH 8, 30 °C, 20 mM Tris-HCl, 50 mM NaCl.
Substrate in the series “purified protein”: Cc1cc(=O)oc2cc(NC(=O)[C@H](CCCCNC(=O)C(F)(F)F)NC(=O)OC(C)(C)C)ccc12
Kind of series: purified protein. The following applies: pH 8, 30 °C, 20 mM Tris-HCl, 50 mM NaCl. This is another data set of the same source.

Substrate in series [3]: CC(=O)NCCCCN
Briefly: diamine oxidase coupled colorimetric assay. The following applies: pH 7.4, 21 °C, 100 mM HEPES. It is filed as biochemical, Pseudomonas aeruginosa. From the text:
(§1) diamine oxidase coupled colorimetric assay on PA1409

Substrate in series [4]: CC(=O)NCCCCCN
Kind of series: diamine oxidase coupled colorimetric assay. It is filed as biochemical, Pseudomonas aeruginosa. The following applies: pH 7.4, 21 °C, 100 mM HEPES.
Excerpt: as §1

Substrate in series [5]: CC(=O)NCCCCN
Briefly: diamine oxidase coupled colorimetric assay. It is filed as biochemical, Pseudomonas aeruginosa. As to conditions: pH 7.4, 21 °C, 100 mM HEPES. From the text: (§2) diamine oxidase coupled colorimetric assay on PA0321
The source holds these as a separate data set.

Substrate in series [6]: CC(=O)NCCCCCN
Kind of series: diamine oxidase coupled colorimetric assay. It is filed as biochemical, Pseudomonas aeruginosa. As to conditions: pH 7.4, 21 °C, 100 mM HEPES.
Excerpt: as §2
This is another data set of the same source.

Consider HDAH (Alcaligenaceae bacterium FB188), for which, in series [1], the Km – broadly, the substrate concentration at which the rate is half of its maximum – worked out at 26 ± 4 µM and the Vmax – broadly, the top rate of the reaction or transport when substrate is in excess – was 0.0258 µmol/min/mg. Besides, in series [2], the Km is 7.2 ± 1.1 µM and the Vmax came out at 0.0138 µmol/min/mg.
Regarding PA0321 (Pseudomonas aeruginosa PAO1), in series [1], the Michaelis constant (Km) turned out to be 22 ± 10 µM.
PA1409 (Pseudomonas aeruginosa PAO1): the Michaelis constant (Km) in series [1] came out at 223 ± 12 µM.
For the molecule PA3774 (Pseudomonas aeruginosa PAO1), the Michaelis-Menten constant (Km) in series [1] stood at 95 ± 7 µM.

B1: PA1409 (Pseudomonas aeruginosa PAO1) (protein)
chain: MLSVYSDDHRLHFGQSELVDGKLQPCFEMPSRADTVLARVKSQNLGEVIAPKDFGREPLLRLHDAAYLDFLQGAWARWTAEGHSGDLVSTTFPGRRLRRDGPIPTALMGELGYYSFDTEAPITAGTWQAIYSSAQVALTAQEHMRQGARSAFALCRPPGHHAGGDFMGGYCFLNNAAIATQAFLDQGARRVAILDVDYHHGNGTQDIFYRRDDVLFASIHGDPRVEYPYFLGYADERGEGAGEGCNHNYPLAHGSGWDLWSAALDDACVRIAGYAPDALVISLGVDTYKEDPISQFRLDSPDYLRMGERIARLGLPTLFIMEGGYAVEAIGINAVNVLQGYEGAAR
notes: recombinant, E. coli expressed, produced as described before [30]
With B1, the Km in the series “purified protein” turned out to be 84 ± 15 µM; in series [3], 503 ± 60 µM; in series [4] it was 465 ± 53 µM.

B2: PA0321 (Pseudomonas aeruginosa PAO1) (protein)
chain: MLTIYSDDHRLHHGRHELIGGQFTPCFEKPSRADMVLDRVKAVGLGEVRAPRDFGLEPIRRVHSEGFVRFLQNAWQDWLATGRSHDMLPIAWPTRRLRQTEPDNIDGRLGYYSFDAGAPITAGTWQAITSSANVALSGQSELANGARSVFSLCRPPGHHAAADYMGGYCFFNNAAIAAQAFLDRGAGRVAILDVDYHHGNGTQDIFYDRADVLFTSIHGDPRFEYPYFLGYADEKGNGVGTGYNFNYPLAAGSDWATWSQALQAAIRQIQAYAADALIVSLGVDTFKEDPISQFRLDSPDYLRMGEAIGKLGLATLFVMEGGYAVEEIGINAVNVLQGFEGVHR
notes: as for B1
For B2, the Km is 11 ± 1 µM in the series “purified protein”, 411 ± 34 µM in series [5] and 284 ± 39 µM in series [6].

B3: PA3774 (Pseudomonas aeruginosa PAO1) (protein)
chain: MTRRTAFFFDELCLWHAAGPHALTLPVGGWVQPPAAAGHAESPETKRRLKSLLDVSGLTARLQLRSAPPASDEDLLRVHPAHYLERFKALSDAGGGSLGQDAPIGPGSYEIARLSAGLAIAALDAVLAGEADNAYSLSRPPGHHCLPDQAMGFCFFANIAVAIEAAKARHGVERVAVLDWDVHHGNGTQAIYYRRDDVLSISLHQDGCFPPGYSGAEDIGEDRGRGFNLNVPLLPGGGHDAYMQAMQRIVLPALERFRPQLIVVASGFDANAVDPLARMQLHSDSFRAMTAMVRDAAERHAGGRLVVVHEGGYSEAYVPFCGLAVIEELSGVRSAVRDPLRDFIELQQPNAAFRDFQRQRLEELAAQFGLCPAQPLQAAR
B3: the Km in “purified protein” is 21 ± 2 µM.

Values taken from publication PMC4784309, “Substrate specificity and function of acetylpolyamine amidohydrolases from Pseudomonas aeruginosa” (BMC Biochemistry, 2016).
